Reference: the supplement of paper PMC9112550, “Optimization of the antimicrobial peptide Bac7 by deep mutational scanning” (BMC Biology, 2022)

System: Escherichia coli TOP10
Test: shrunken log2 fold change of peptide-encoding DNA abundance (4.5 h post-induction vs induction); higher = less antimicrobial activity (less host growth inhibition)
Conditions: time post-induction: 4.5 h; library: site-saturation at positions 5, 18, 19, 20
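Further: peptides expressed intracellularly from a pBAD plasmid library in pooled LB shake-flask culture, induced with 0.3% L-arabinose, DNA abundance read by NGS, three biological replicates, DESeq2 with apeglm shrinkage.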

Sequence | shrunken log2 fold change
RRIRMRPPRLPRPRPRPETVPRP | 2.2
RRIRMRPPRLPRPRPRPEVGPRP | 2.56
RRIRMRPPRLPRPRPRPEVIPRP | 0.0213
RRIRMRPPRLPRPRPRPEVPPRP | 1.33
RRIRMRPPRLPRPRPRPFCIPRP | -0.288
RRIRMRPPRLPRPRPRPFDAPRP | 0.396
RRIRMRPPRLPRPRPRPFDTPRP | -0.0634
RRIRMRPPRLPRPRPRPFEAPRP | 0.655
RRIRMRPPRLPRPRPRPFFDPRP | 0.232
RRIRMRPPRLPRPRPRPFGVPRP | 0.0231
RRIRMRPPRLPRPRPRPFHCPRP | 0.0959
RRIRMRPPRLPRPRPRPFHKPRP | 0.0887
RRIRMRPPRLPRPRPRPFHLPRP | -0.0432
RRIRMRPPRLPRPRPRPFITPRP | -0.456
RRIRMRPPRLPRPRPRPFIVPRP | -0.414
RRIRMRPPRLPRPRPRPFIWPRP | 0.0163
RRIRMRPPRLPRPRPRPFKEPRP | -0.00865
RRIRMRPPRLPRPRPRPFLEPRP | -0.088
RRIRMRPPRLPRPRPRPFMTPRP | 0.0622
RRIRMRPPRLPRPRPRPFNAPRP | 0.00535
RRIRMRPPRLPRPRPRPFNKPRP | -0.52
RRIRMRPPRLPRPRPRPFNRPRP | -0.00136
RRIRMRPPRLPRPRPRPFQWPRP | -0.0962
RRIRMRPPRLPRPRPRPFSIPRP | -0.11
RRIRMRPPRLPRPRPRPFVFPRP | 0.0629

Sequence | shrunken log2 fold change
RRIRMRPPRLPRPRPRPFVSPRP | -0.0194
RRIRMRPPRLPRPRPRPFVTPRP | -0.269
RRIRMRPPRLPRPRPRPFVVPRP | -0.254
RRIRMRPPRLPRPRPRPFVWPRP | 0.246
RRIRMRPPRLPRPRPRPFWCPRP | 0.314
RRIRMRPPRLPRPRPRPGALPRP | 0.954
RRIRMRPPRLPRPRPRPGAMPRP | 0.609
RRIRMRPPRLPRPRPRPGCDPRP | 1.85
RRIRMRPPRLPRPRPRPGCEPRP | 1.87
RRIRMRPPRLPRPRPRPGCIPRP | 0.0871
RRIRMRPPRLPRPRPRPGCPPRP | 0.521
RRIRMRPPRLPRPRPRPGDDPRP | 1.96
RRIRMRPPRLPRPRPRPGDVPRP | 0.333
RRIRMRPPRLPRPRPRPGEFPRP | 0.00408
RRIRMRPPRLPRPRPRPGEQPRP | 1.48
RRIRMRPPRLPRPRPRPGGKPRP | 0.583
RRIRMRPPRLPRPRPRPGGPPRP | 0.119
RRIRMRPPRLPRPRPRPGGTPRP | 0.722
RRIRMRPPRLPRPRPRPGHFPRP | 0.274
RRIRMRPPRLPRPRPRPGHMPRP | -0.203
RRIRMRPPRLPRPRPRPGHTPRP | 0.488
RRIRMRPPRLPRPRPRPGKDPRP | 0.0653
RRIRMRPPRLPRPRPRPGKNPRP | 0.417
RRIRMRPPRLPRPRPRPGLDPRP | 2.44
RRIRMRPPRLPRPRPRPGMVPRP | 0.263

Sequence | shrunken log2 fold change
RRIRMRPPRLPRPRPRPGPGPRP | 2.09
RRIRMRPPRLPRPRPRPGPHPRP | 0.256
RRIRMRPPRLPRPRPRPGPMPRP | 1.05
RRIRMRPPRLPRPRPRPGPPPRP | 1.23
RRIRMRPPRLPRPRPRPGPSPRP | 1.23
RRIRMRPPRLPRPRPRPGQEPRP | 0.605
RRIRMRPPRLPRPRPRPGQGPRP | 0.269
RRIRMRPPRLPRPRPRPGQIPRP | -0.00968
RRIRMRPPRLPRPRPRPGQSPRP | 1.23
RRIRMRPPRLPRPRPRPGRHPRP | 0.441
RRIRMRPPRLPRPRPRPGRLPRP | 0.411
RRIRMRPPRLPRPRPRPGRTPRP | 0.894
RRIRMRPPRLPRPRPRPGRWPRP | 1.66
RRIRMRPPRLPRPRPRPGSPPRP | 0.136
RRIRMRPPRLPRPRPRPGSWPRP | 0.858
RRIRMRPPRLPRPRPRPGTDPRP | 1.19
RRIRMRPPRLPRPRPRPGTKPRP | 0.844
RRIRMRPPRLPRPRPRPGTVPRP | -0.071
RRIRMRPPRLPRPRPRPGVSPRP | 0.461
RRIRMRPPRLPRPRPRPGWDPRP | 0.297
RRIRMRPPRLPRPRPRPGWRPRP | 1.15
RRIRMRPPRLPRPRPRPHADPRP | 2
RRIRMRPPRLPRPRPRPHDNPRP | 0.0232
RRIRMRPPRLPRPRPRPHFHPRP | -0.376
RRIRMRPPRLPRPRPRPHFLPRP | -0.235

Sequence | shrunken log2 fold change
RRIRMRPPRLPRPRPRPHHLPRP | 0.0151
RRIRMRPPRLPRPRPRPHIRPRP | -0.0162
RRIRMRPPRLPRPRPRPHKCPRP | 0.0429
RRIRMRPPRLPRPRPRPHKNPRP | 0.195
RRIRMRPPRLPRPRPRPHKWPRP | 0.216
RRIRMRPPRLPRPRPRPHLFPRP | -0.0118
RRIRMRPPRLPRPRPRPHLHPRP | -0.301
RRIRMRPPRLPRPRPRPHLVPRP | -0.0163
RRIRMRPPRLPRPRPRPHMLPRP | -0.245
RRIRMRPPRLPRPRPRPHMQPRP | -0.122
RRIRMRPPRLPRPRPRPHMRPRP | 0.509
RRIRMRPPRLPRPRPRPHMWPRP | 0.108
RRIRMRPPRLPRPRPRPHPSPRP | -0.127
RRIRMRPPRLPRPRPRPHQQPRP | 0.107
RRIRMRPPRLPRPRPRPHRDPRP | 0.169
RRIRMRPPRLPRPRPRPHRQPRP | 0.532
RRIRMRPPRLPRPRPRPHSFPRP | 0.0932
RRIRMRPPRLPRPRPRPHTQPRP | 0.614
RRIRMRPPRLPRPRPRPHVIPRP | 0.00402
RRIRMRPPRLPRPRPRPIAVPRP | -0.015
RRIRMRPPRLPRPRPRPIAYPRP | 0.0419
RRIRMRPPRLPRPRPRPICHPRP | 0.0206
RRIRMRPPRLPRPRPRPIDQPRP | 0.0164
RRIRMRPPRLPRPRPRPIFSPRP | 0.0637
RRIRMRPPRLPRPRPRPIGSPRP | 0.079

Sequence | shrunken log2 fold change
RRIRMRPPRLPRPRPRPIHFPRP | -0.0141
RRIRMRPPRLPRPRPRPIHQPRP | -0.108
RRIRMRPPRLPRPRPRPIIPPRP | 0.000609
RRIRMRPPRLPRPRPRPIIQPRP | -0.402
RRIRMRPPRLPRPRPRPILCPRP | 0.0427
RRIRMRPPRLPRPRPRPINAPRP | -0.0931
RRIRMRPPRLPRPRPRPINPPRP | -0.0782
RRIRMRPPRLPRPRPRPINTPRP | -0.387
RRIRMRPPRLPRPRPRPIQWPRP | 0.144
RRIRMRPPRLPRPRPRPISVPRP | 0.103
RRIRMRPPRLPRPRPRPITHPRP | 0.0509
RRIRMRPPRLPRPRPRPITLPRP | -0.521
RRIRMRPPRLPRPRPRPIVAPRP | 0.156
RRIRMRPPRLPRPRPRPIVGPRP | 0.108
RRIRMRPPRLPRPRPRPIVSPRP | -0.0362
RRIRMRPPRLPRPRPRPIYPPRP | -0.125
RRIRMRPPRLPRPRPRPKASPRP | 1.97
RRIRMRPPRLPRPRPRPKDTPRP | 1.86
RRIRMRPPRLPRPRPRPKEGPRP | -0.01
RRIRMRPPRLPRPRPRPKETPRP | 0.201
RRIRMRPPRLPRPRPRPKFHPRP | -0.174
RRIRMRPPRLPRPRPRPKFIPRP | -0.182
RRIRMRPPRLPRPRPRPKGRPRP | -0.00141
RRIRMRPPRLPRPRPRPKHHPRP | 0.148
RRIRMRPPRLPRPRPRPKIFPRP | 0.0739

Sequence | shrunken log2 fold change
RRIRMRPPRLPRPRPRPKIIPRP | 0.102
RRIRMRPPRLPRPRPRPKIPPRP | 0.365
RRIRMRPPRLPRPRPRPKKEPRP | -0.0374
RRIRMRPPRLPRPRPRPKKFPRP | 0.358
RRIRMRPPRLPRPRPRPKKTPRP | 1.46
RRIRMRPPRLPRPRPRPKMNPRP | 0.501
RRIRMRPPRLPRPRPRPKNIPRP | -0.232
RRIRMRPPRLPRPRPRPKPHPRP | 1.19
RRIRMRPPRLPRPRPRPKTAPRP | 2.56
RRIRMRPPRLPRPRPRPKWTPRP | 0.0304
RRIRMRPPRLPRPRPRPLCHPRP | 0.061
RRIRMRPPRLPRPRPRPLDCPRP | 0.262
RRIRMRPPRLPRPRPRPLDIPRP | -0.0561
RRIRMRPPRLPRPRPRPLDKPRP | 1.96
RRIRMRPPRLPRPRPRPLEHPRP | 0.0245
RRIRMRPPRLPRPRPRPLEVPRP | 0.405
RRIRMRPPRLPRPRPRPLFHPRP | -0.0668
RRIRMRPPRLPRPRPRPLGLPRP | 0.717
RRIRMRPPRLPRPRPRPLGNPRP | -0.0024
RRIRMRPPRLPRPRPRPLIEPRP | 1.14
RRIRMRPPRLPRPRPRPLIQPRP | 0.00597
RRIRMRPPRLPRPRPRPLISPRP | 0.171
RRIRMRPPRLPRPRPRPLKHPRP | -0.0893
RRIRMRPPRLPRPRPRPLLFPRP | 0.908
RRIRMRPPRLPRPRPRPLLWPRP | 0.914
